Experimental data: US20240383967A1 (UNIVERSITY OF SOUTHERN CALIFORNIA, published 2024)

B1: Her-HC-CTSSpp IgG (antibody)
heavy: EVQLVESGGGLVQPGGSLRLSCAASGFNIKDTYIHWVRQAPGKGLEWVARIYPTNGYTRYADSVKGRFTISADTSKNTAYLQMNSLRAEDTAVYYCSRGGSGAKLAALKAKLAALKCGGGGSIEGRQLHKDPTLDHHWHLWKKTYGKQYKEKNEEAVRRLIWEKNLKFVMLHNLEHSMGMHSYDLGMNHLGDMTSEEVMSLMSSLRVPSQWQRNITYKSNPNRGGGGSCELAALEAELAALEAGGSGDYWGQGTLVTVSSASTKGPSVFPLAPSSKSTSGGTAALGCLVKDYFPEPVTVSWNSGALTSGVHTFPAVLQSSGLYSLSSVVTVPSSSLGTQTYICNVNHKPSNTKVDKKVEPKSCDKTHTCPPCPAPPVAGPSVFLFPPKPKDTLMISRTPEVTCVVVDVSHEDPEVKFNWYVDGVEVHNAKTKPREEQYNSTYRVVSVLTVLHQDWLNGKEYKCKVSNKGLPSSIEKTISKAKGQPREPQVYTLPPSRDELTKNQVSLTCLVKGFYPSDIAVEWESNGQPENNYKTTPPVLDSDGSFFLYSKLTVDKSRWQQGNVFSCSVMHEALHNHYTQKSLSLSPGK
light: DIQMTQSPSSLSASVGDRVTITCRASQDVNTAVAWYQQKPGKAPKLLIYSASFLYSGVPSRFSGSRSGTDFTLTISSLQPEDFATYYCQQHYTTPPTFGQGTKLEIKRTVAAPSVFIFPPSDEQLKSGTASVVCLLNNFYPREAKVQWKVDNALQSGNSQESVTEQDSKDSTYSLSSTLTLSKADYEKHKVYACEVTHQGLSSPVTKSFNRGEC
notes: Full-length IgG expressed in Expi293F cells and purified on protein G. The propeptide of proCTSS is grafted into CDR3H of the anti-HER2 antibody Herceptin
B2: Syn-LC-CTSSpp Fab (Fab)
light: QLHKDPTLDHHWHLWKKTYGKQYKEKNEEAVRRLIWEKNLKFVMLHNLEHSMGMHSYDLGMNHLGDMTSEEVMSLMSSLRVPSQWQRNITYKSNPNRGGGGSDIQMTQSPSTLSASVGDRVTITCKCQLSVGYMHWYQQKPGKAPKLLIYDTSKLASGVPSRFSGSGSGTEFTLTISSLQPDDFATYYCFQGSGYPFTFGGGTKLEIKRTVAAPSVFIFPPSDEQLKSGTASVVCLLNNFYPREAKVQWKVDNALQSGNSQESVTEQDSKDSTYSLSSTLTLSKADYEKHKVYACEVTHQGLSSPVTKSFNRGEC
heavy: QVTLRESGPALVKPTQTLTLTCTFSGFSLSTSGMSVGWIRQPPGKALEWLADIWWDDKKDYNPSLKSRLTISKDTSKNQVVLKVTNMDPADTATYYCARSMITNWYFDVWGAGTTVTVSSASTKGPSVFPLAPSSKSTSGGTAALGCLVKDYFPEPVTVSWNSGALTSGVHTFPAVLQSSGLYSLSSVVTVPSSSLGTQTYICNVNHKPSNTKVDKKVEPKSCDKTHT

Assays:
Recombinant human CTSL [1] = target: T1, Recombinant human CTSL (human, UniProt P07711 114-333); assay: fluorogenic protease activity assay (Z-FR-AMC), initial rates fitted to the competitive inhibition equation
T1 construct: Bought; also called cathepsin L
T1 sequence (P07711 114-333): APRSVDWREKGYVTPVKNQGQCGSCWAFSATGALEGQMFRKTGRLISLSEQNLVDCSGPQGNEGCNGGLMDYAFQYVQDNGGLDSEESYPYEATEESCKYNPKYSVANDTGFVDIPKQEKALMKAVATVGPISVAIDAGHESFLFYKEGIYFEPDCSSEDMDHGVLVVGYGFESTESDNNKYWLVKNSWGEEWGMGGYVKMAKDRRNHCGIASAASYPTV
Experimental: (§1) The inhibition activity of Her-HC-CTSSpp IgG was then examined with human CTSS through fluorescence-based activity assays using a fluorogenic peptide substrate Z-VVR-AMC (FIG. 5). […] CTSS and CTSL belong to the same subfamily of cathepsins. And the propeptide of proCTSS is a known inhibitor of CTSL (28,29). Therefore, the activity of Her-HC-CTSSpp IgG in inhibiting human CTSL was evaluated with a fluorogenic peptide substrate Z-FR-AMC (FIG. 5). […] To further study inhibition specificity of Her-HC-CTSSpp IgG, fluorescence-based activity assays for human CTSB and bovine trypsin were carried out in the absence or presence of Her-HC-CTSSpp IgG.
(§2) Next, inhibition potency and specificity of the designed Syn-LC-CTSSpp Fab antibody were analyzed by fluorescence-based proteolytic activity assays. […] Likewise, Syn-LC-CTSSpp Fab functions as a weaker antibody inhibitor against human CTSL.

Recombinant human CTSS = target: T2, Recombinant human CTSS (human, UniProt P25774 115-331); assay: fluorogenic protease activity assay (Z-VVR-AMC), initial rates fitted to the competitive inhibition equation
T2 construct: Bought from R&D Systems (1183-CY-010); also called cathepsin S
Experimental: as §1, §2

Recombinant human CTSL [2] = target: T1, Recombinant human CTSL; assay: ratio of Ki values from fluorogenic protease activity assays

Binder	Ki (Recombinant human CTSL [1]) [nM]	Ki (Recombinant human CTSS) [nM]	fold decrease of potency for CTSL in comparison to CTSS (Recombinant human CTSL [2]) [fold]
B1	49.3	6.03	
B2	24.5	2.12	~12
